Where no end group is shown, it is not given here. [ ]: non-standard residue; d: D form. Aib = CC(C)(N)C(=O)O
B1: [Aib8,Lys23,Val25,Glu34,Lys35,Aib36,Lys37]-GLP-1-(7-37)-peptidyl-Glu-Phe-Leu amide (peptide)
peptide: H[Aib]EGTFTSDVSSYLEGKAVKEFIAWLVEK[Aib]KEFL-NH2
modifications: N-terminus assumed
SMILES: CC[C@H](C)[C@H](NC(=O)[C@H](Cc1ccccc1)NC(=O)[C@H](CCC(=O)O)NC(=O)[C@H](CCCCN)NC(=O)[C@@H](NC(=O)[C@H](C)NC(=O)[C@H](CCCCN)NC(=O)CNC(=O)[C@H](CCC(=O)O)NC(=O)[C@H](CC(C)C)NC(=O)[C@H](Cc1ccc(O)cc1)NC(=O)[C@H](CO)NC(=O)[C@H](CO)NC(=O)[C@@H](NC(=O)[C@H](CC(=O)O)NC(=O)[C@H](CO)NC(=O)[C@@H](NC(=O)[C@H](Cc1ccccc1)NC(=O)[C@@H](NC(=O)CNC(=O)[C@H](CCC(=O)O)NC(=O)C(C)(C)NC(=O)[C@@H](N)Cc1c[nH]cn1)[C@@H](C)O)[C@@H](C)O)C(C)C)C(C)C)C(=O)N[C@@H](C)C(=O)N[C@@H](Cc1c[nH]c2ccccc12)C(=O)N[C@@H](CC(C)C)C(=O)N[C@H](C(=O)N[C@@H](CCC(=O)O)C(=O)N[C@@H](CCCCN)C(=O)NC(C)(C)C(=O)N[C@@H](CCCCN)C(=O)N[C@@H](CCC(=O)O)C(=O)N[C@@H](Cc1ccccc1)C(=O)N[C@@H](CC(C)C)C(N)=O)C(C)C
B2: [Aib8,Glu23,Val25,Glu34,Lys35,Phe36,Lys37]-GLP-1-(7-37)-peptidyl-Glu-Phe-Phe amide (peptide)
peptide: H[Aib]EGTFTSDVSSYLEGEAVKEFIAWLVEKFKEFF-NH2
modifications: N-terminus assumed
SMILES: CC[C@H](C)[C@H](NC(=O)[C@H](Cc1ccccc1)NC(=O)[C@H](CCC(=O)O)NC(=O)[C@H](CCCCN)NC(=O)[C@@H](NC(=O)[C@H](C)NC(=O)[C@H](CCC(=O)O)NC(=O)CNC(=O)[C@H](CCC(=O)O)NC(=O)[C@H](CC(C)C)NC(=O)[C@H](Cc1ccc(O)cc1)NC(=O)[C@H](CO)NC(=O)[C@H](CO)NC(=O)[C@@H](NC(=O)[C@H](CC(=O)O)NC(=O)[C@H](CO)NC(=O)[C@@H](NC(=O)[C@H](Cc1ccccc1)NC(=O)[C@@H](NC(=O)CNC(=O)[C@H](CCC(=O)O)NC(=O)C(C)(C)NC(=O)[C@@H](N)Cc1c[nH]cn1)[C@@H](C)O)[C@@H](C)O)C(C)C)C(C)C)C(=O)N[C@@H](C)C(=O)N[C@@H](Cc1c[nH]c2ccccc12)C(=O)N[C@@H](CC(C)C)C(=O)N[C@H](C(=O)N[C@@H](CCC(=O)O)C(=O)N[C@@H](CCCCN)C(=O)N[C@@H](Cc1ccccc1)C(=O)N[C@@H](CCCCN)C(=O)N[C@@H](CCC(=O)O)C(=O)N[C@@H](Cc1ccccc1)C(=O)N[C@@H](Cc1ccccc1)C(N)=O)C(C)C
B3: [Aib8,Glu23,Val25,Arg26,Glu34,Arg35,Val36,Arg37]-GLP-1-(7-37)-peptidyl-Glu-Phe-Leu-Lys amide (peptide)
peptide: H[Aib]EGTFTSDVSSYLEGEAVREFIAWLVERVREFLK-NH2
modifications: N-terminus assumed
SMILES: CC[C@H](C)[C@H](NC(=O)[C@H](Cc1ccccc1)NC(=O)[C@H](CCC(=O)O)NC(=O)[C@H](CCCNC(=N)N)NC(=O)[C@@H](NC(=O)[C@H](C)NC(=O)[C@H](CCC(=O)O)NC(=O)CNC(=O)[C@H](CCC(=O)O)NC(=O)[C@H](CC(C)C)NC(=O)[C@H](Cc1ccc(O)cc1)NC(=O)[C@H](CO)NC(=O)[C@H](CO)NC(=O)[C@@H](NC(=O)[C@H](CC(=O)O)NC(=O)[C@H](CO)NC(=O)[C@@H](NC(=O)[C@H](Cc1ccccc1)NC(=O)[C@@H](NC(=O)CNC(=O)[C@H](CCC(=O)O)NC(=O)C(C)(C)NC(=O)[C@@H](N)Cc1c[nH]cn1)[C@@H](C)O)[C@@H](C)O)C(C)C)C(C)C)C(=O)N[C@@H](C)C(=O)N[C@@H](Cc1c[nH]c2ccccc12)C(=O)N[C@@H](CC(C)C)C(=O)N[C@H](C(=O)N[C@@H](CCC(=O)O)C(=O)N[C@@H](CCCNC(=N)N)C(=O)N[C@H](C(=O)N[C@@H](CCCNC(=N)N)C(=O)N[C@@H](CCC(=O)O)C(=O)N[C@@H](Cc1ccccc1)C(=O)N[C@@H](CC(C)C)C(=O)N[C@@H](CCCCN)C(N)=O)C(C)C)C(C)C
B4: [Aib8,Glu23,Val25,Leu33,Glu34,Lys35,Aib36,Lys37]-GLP-1-(7-37)-peptidyl-Glu-Trp-Leu amide (peptide)
peptide: H[Aib]EGTFTSDVSSYLEGEAVKEFIAWLLEK[Aib]KEWL-NH2
modifications: N-terminus assumed
SMILES: CC[C@H](C)[C@H](NC(=O)[C@H](Cc1ccccc1)NC(=O)[C@H](CCC(=O)O)NC(=O)[C@H](CCCCN)NC(=O)[C@@H](NC(=O)[C@H](C)NC(=O)[C@H](CCC(=O)O)NC(=O)CNC(=O)[C@H](CCC(=O)O)NC(=O)[C@H](CC(C)C)NC(=O)[C@H](Cc1ccc(O)cc1)NC(=O)[C@H](CO)NC(=O)[C@H](CO)NC(=O)[C@@H](NC(=O)[C@H](CC(=O)O)NC(=O)[C@H](CO)NC(=O)[C@@H](NC(=O)[C@H](Cc1ccccc1)NC(=O)[C@@H](NC(=O)CNC(=O)[C@H](CCC(=O)O)NC(=O)C(C)(C)NC(=O)[C@@H](N)Cc1c[nH]cn1)[C@@H](C)O)[C@@H](C)O)C(C)C)C(C)C)C(=O)N[C@@H](C)C(=O)N[C@@H](Cc1c[nH]c2ccccc12)C(=O)N[C@@H](CC(C)C)C(=O)N[C@@H](CC(C)C)C(=O)N[C@@H](CCC(=O)O)C(=O)N[C@@H](CCCCN)C(=O)NC(C)(C)C(=O)N[C@@H](CCCCN)C(=O)N[C@@H](CCC(=O)O)C(=O)N[C@@H](Cc1c[nH]c2ccccc12)C(=O)N[C@@H](CC(C)C)C(N)=O
B5: [Aib8,Glu23,Lys24,Val25,Glu30,His31,Glu34,Lys35,Phe36,Lys37]-GLP-1-(7-37)-peptidyl-Glu-Phe-Phe amide (peptide)
peptide: H[Aib]EGTFTSDVSSYLEGEKVKEFIEHLVEKFKEFF-NH2
modifications: N-terminus assumed
SMILES: CC[C@H](C)[C@H](NC(=O)[C@H](Cc1ccccc1)NC(=O)[C@H](CCC(=O)O)NC(=O)[C@H](CCCCN)NC(=O)[C@@H](NC(=O)[C@H](CCCCN)NC(=O)[C@H](CCC(=O)O)NC(=O)CNC(=O)[C@H](CCC(=O)O)NC(=O)[C@H](CC(C)C)NC(=O)[C@H](Cc1ccc(O)cc1)NC(=O)[C@H](CO)NC(=O)[C@H](CO)NC(=O)[C@@H](NC(=O)[C@H](CC(=O)O)NC(=O)[C@H](CO)NC(=O)[C@@H](NC(=O)[C@H](Cc1ccccc1)NC(=O)[C@@H](NC(=O)CNC(=O)[C@H](CCC(=O)O)NC(=O)C(C)(C)NC(=O)[C@@H](N)Cc1c[nH]cn1)[C@@H](C)O)[C@@H](C)O)C(C)C)C(C)C)C(=O)N[C@@H](CCC(=O)O)C(=O)N[C@@H](Cc1c[nH]cn1)C(=O)N[C@@H](CC(C)C)C(=O)N[C@H](C(=O)N[C@@H](CCC(=O)O)C(=O)N[C@@H](CCCCN)C(=O)N[C@@H](Cc1ccccc1)C(=O)N[C@@H](CCCCN)C(=O)N[C@@H](CCC(=O)O)C(=O)N[C@@H](Cc1ccccc1)C(=O)N[C@@H](Cc1ccccc1)C(N)=O)C(C)C
B6: [Aib8,Glu23,Val25,Gln26,Glu34,Ala35,Val36,Ala37]-GLP-1-(7-37)-peptidyl-Glu-Phe-Leu amide (peptide)
peptide: H[Aib]EGTFTSDVSSYLEGEAVQEFIAWLVEAVAEFL-NH2
modifications: N-terminus assumed
SMILES: CC[C@H](C)[C@H](NC(=O)[C@H](Cc1ccccc1)NC(=O)[C@H](CCC(=O)O)NC(=O)[C@H](CCC(N)=O)NC(=O)[C@@H](NC(=O)[C@H](C)NC(=O)[C@H](CCC(=O)O)NC(=O)CNC(=O)[C@H](CCC(=O)O)NC(=O)[C@H](CC(C)C)NC(=O)[C@H](Cc1ccc(O)cc1)NC(=O)[C@H](CO)NC(=O)[C@H](CO)NC(=O)[C@@H](NC(=O)[C@H](CC(=O)O)NC(=O)[C@H](CO)NC(=O)[C@@H](NC(=O)[C@H](Cc1ccccc1)NC(=O)[C@@H](NC(=O)CNC(=O)[C@H](CCC(=O)O)NC(=O)C(C)(C)NC(=O)[C@@H](N)Cc1c[nH]cn1)[C@@H](C)O)[C@@H](C)O)C(C)C)C(C)C)C(=O)N[C@@H](C)C(=O)N[C@@H](Cc1c[nH]c2ccccc12)C(=O)N[C@@H](CC(C)C)C(=O)N[C@H](C(=O)N[C@@H](CCC(=O)O)C(=O)N[C@@H](C)C(=O)N[C@H](C(=O)N[C@@H](C)C(=O)N[C@@H](CCC(=O)O)C(=O)N[C@@H](Cc1ccccc1)C(=O)N[C@@H](CC(C)C)C(N)=O)C(C)C)C(C)C
B7: [Aib8,Val25,Glu34,Lys35,Aib36,Lys37]-GLP-1-(7-37)-peptidyl-Glu-Phe-Leu amide (peptide)
peptide: H[Aib]EGTFTSDVSSYLEGQAVKEFIAWLVEK[Aib]KEFL-NH2
modifications: N-terminus assumed
SMILES: CC[C@H](C)[C@H](NC(=O)[C@H](Cc1ccccc1)NC(=O)[C@H](CCC(=O)O)NC(=O)[C@H](CCCCN)NC(=O)[C@@H](NC(=O)[C@H](C)NC(=O)[C@H](CCC(N)=O)NC(=O)CNC(=O)[C@H](CCC(=O)O)NC(=O)[C@H](CC(C)C)NC(=O)[C@H](Cc1ccc(O)cc1)NC(=O)[C@H](CO)NC(=O)[C@H](CO)NC(=O)[C@@H](NC(=O)[C@H](CC(=O)O)NC(=O)[C@H](CO)NC(=O)[C@@H](NC(=O)[C@H](Cc1ccccc1)NC(=O)[C@@H](NC(=O)CNC(=O)[C@H](CCC(=O)O)NC(=O)C(C)(C)NC(=O)[C@@H](N)Cc1c[nH]cn1)[C@@H](C)O)[C@@H](C)O)C(C)C)C(C)C)C(=O)N[C@@H](C)C(=O)N[C@@H](Cc1c[nH]c2ccccc12)C(=O)N[C@@H](CC(C)C)C(=O)N[C@H](C(=O)N[C@@H](CCC(=O)O)C(=O)N[C@@H](CCCCN)C(=O)NC(C)(C)C(=O)N[C@@H](CCCCN)C(=O)N[C@@H](CCC(=O)O)C(=O)N[C@@H](Cc1ccccc1)C(=O)N[C@@H](CC(C)C)C(N)=O)C(C)C
B8: [Gly8,Glu23,Val25,Glu34,Lys35,Val36,Lys37]-GLP-1-(7-37)-peptidyl-Glu-Phe-Leu-Gly (peptide)
peptide: HGEGTFTSDVSSYLEGEAVKEFIAWLVEKVKEFLG
B9: [Aib8,Glu23,Val25,Gln26,Glu34,Gln35,Aib36,Gln37]-GLP-1-(7-37)-peptidyl-Glu-Phe-Leu amide (peptide)
peptide: H[Aib]EGTFTSDVSSYLEGEAVQEFIAWLVEQ[Aib]QEFL-NH2
modifications: N-terminus assumed
SMILES: CC[C@H](C)[C@H](NC(=O)[C@H](Cc1ccccc1)NC(=O)[C@H](CCC(=O)O)NC(=O)[C@H](CCC(N)=O)NC(=O)[C@@H](NC(=O)[C@H](C)NC(=O)[C@H](CCC(=O)O)NC(=O)CNC(=O)[C@H](CCC(=O)O)NC(=O)[C@H](CC(C)C)NC(=O)[C@H](Cc1ccc(O)cc1)NC(=O)[C@H](CO)NC(=O)[C@H](CO)NC(=O)[C@@H](NC(=O)[C@H](CC(=O)O)NC(=O)[C@H](CO)NC(=O)[C@@H](NC(=O)[C@H](Cc1ccccc1)NC(=O)[C@@H](NC(=O)CNC(=O)[C@H](CCC(=O)O)NC(=O)C(C)(C)NC(=O)[C@@H](N)Cc1c[nH]cn1)[C@@H](C)O)[C@@H](C)O)C(C)C)C(C)C)C(=O)N[C@@H](C)C(=O)N[C@@H](Cc1c[nH]c2ccccc12)C(=O)N[C@@H](CC(C)C)C(=O)N[C@H](C(=O)N[C@@H](CCC(=O)O)C(=O)N[C@@H](CCC(N)=O)C(=O)NC(C)(C)C(=O)N[C@@H](CCC(N)=O)C(=O)N[C@@H](CCC(=O)O)C(=O)N[C@@H](Cc1ccccc1)C(=O)N[C@@H](CC(C)C)C(N)=O)C(C)C

Each binder was assayed against human GLP-1 receptor (human, UniProt P43220) (assay: cell-based or functional assay).
In the case of B1, the “CRE luciferase EC50, 0% HSA” value is reported as 0.311 nM and the “CRE luciferase EC50, 1% HSA” value is reported as 0.173 nM.
With B2 the “CRE luciferase EC50, 0% HSA” value was 1.22 nM and the “CRE luciferase EC50, 1% HSA” value was 0.431 nM.
In the case of B3, the “CRE luciferase EC50, 0% HSA” value is reported as 0.433 nM and the “CRE luciferase EC50, 1% HSA” value is reported as 0.118 nM.
With B4 the “CRE luciferase EC50, 0% HSA” value was 0.659 nM and the “CRE luciferase EC50, 1% HSA” value was 0.32 nM.
With B5 the “CRE luciferase EC50, 0% HSA” value was 5.42 nM and the “CRE luciferase EC50, 1% HSA” value was 1.16 nM.
B6 was tested, and the “CRE luciferase EC50, 0% HSA” value was 0.622 nM and the “CRE luciferase EC50, 1% HSA” value was 0.273 nM.
For B7, the “CRE luciferase EC50, 0% HSA” value was 0.161 nM and the “CRE luciferase EC50, 1% HSA” value was 0.074 nM.
In the case of B8, the “CRE luciferase EC50, 0% HSA” value is reported as 0.464 nM and the “CRE luciferase EC50, 1% HSA” value is reported as 0.122 nM.
For B9, the “CRE luciferase EC50, 0% HSA” value was 0.156 nM and the “CRE luciferase EC50, 1% HSA” value was 0.04 nM.

Reference: patent US20150344540A1, “NOVEL GLP-1 RECEPTOR AGONISTS WITH CHOLESTEROL EFFLUX ACTIVITY” (NOVO NORDISK A/S, priority 2012, published 2015)
